This note sets out measurements from patent US6984772.

Data set [1] has as its target Plasma derived human fibrinogen (reference protein) (UniProt P02671).
Data set [2] has as its target Recombinant human fibrinogen from the milk of transgenic mice (UniProt P02671).

As to Human thrombin, the “clot formation after thrombin, 4 U/ml, 37 C, 24 hours” value in data set [1] is reported as “Cloudy clot-like precipitates were clearly visible in ... hFIB-spiked NTG (pellet-2)”; in data set [2] it was “Cloudy clot-like precipitates were clearly visible in TG (pellet-2)”.
